The target in experiment [1] is T1, biotinylated mature GDF-8 dimer (human, UniProt O14793 267-375, biotin on amine groups (lysine residues and/or amino termini); biotin:GDF-8 molar ratio between 0:1 and 3:1).
T1 construct: Captured on streptavidin-coated plates; also called Biotinylated GDF-8; biotinylated mature GDF-8 protein
Description: ELISA standard curve, 4-parameter logistic fit; c = concentration resulting in signal at approximately midpoint between a and d; biotinylated GDF-8 on streptavidin plate. As for the experimental part: To detect MYO-029 in a human serum sample, an ELISA was performed as follows. Streptavidin was adsorbed by first adding streptavidin coating solution (100 μL/well) (5 μg/mL ImmunoPure streptavidin (Pierce) in 0.1 M Carbonate/Bicarbonate buffer, pH 9.6) to the wells of a 96 well plate (high binding flat-bottom microtiter) (Costar, Cat. No. 3590). The plate was covered with sealing film and incubated at 2-8° C. overnight. Using an automatic plate washer, the plate was washed four times (4×) with THST buffer (300 μL/well) (50 mM Tris-HCl, pH 8.0, containing 1.0 mM glycine, 0.5 M NaCl, and 0.05% v/v/ Tween 20® (J. T. Baker)), reversing the orientation of the plate after the second wash. To block, 200 μL of blocking buffer (1% bovine albumin (Sigma), 0.02% sodium azide in PBS (Dulbeccos)) was added to each well. The plate was covered with sealing film and incubated for 1-2 hours at room temperature and then washed as above. […]
A MYO-029 working calibrator solution was prepared of 1080 ng/mL MYO-029 in normal human serum (Bioreclamation, Inc.) The 1080 ng/mL stock was fist diluted 8-fold in assay buffer (THST buffer+4% nonfat dry milk), and then a series of 1.5 fold dilutions of the resulting 135 ng/mL standard were prepared in THST+4% nonfat dry milk+12.5% normal human serum to yield the calibration standard concentrations. […] For human serum, the minimum dilution determined was 1:8. […]
On the technique in general: An ELISA detects its analyte on a solid surface through an enzyme-linked reagent.

Experiment [2] has as its target T1, biotinylated mature GDF-8 dimer. Description: ELISA standard curve parameters of the rat serum experiment; biotinylated GDF-8 on streptavidin plate.

Our source for the EC50 values is patent publication US20060240487A1 (published 2006).

The EC50 is the concentration that produces a half-maximal response.

B1: MYO-029 (antibody, V domains shown)
VH: QVQLVQSGAEVKKPGASVKVSCKASGYTFTSYYMHWVRQAPGQGLEWMGIINPSGGSTSYAQKFQGRVTMTRDTSTSTVYMELSSLRSEDTAVYYCARDENWGFDPWGQGTLVTVSS
VL: SYELTQPPSVSVSPGQTATITCSGHALGDKFVSWYQQGSGQSPVLVIYDDTQRPSGIPGRFSGSNSGNTATLTISGTQAMDEADYFCQAWDSSFVFGGGTKVTVL
notes: also called fully human antibody
On to B1, for which the values for the EC50 in experiment [1] and in experiment [2] were 0.0728 µg/mL and 0.0587 µg/mL, respectively.
